Experimental data published in PMC6309729 (Biochemistry, 2011).
Changes are numbered by the printed parent chain. Names and notes keep the numbering of the source. Like-named read-outs stand apart in the source and are kept apart here.

T1: cpSRP54 (chloroplast SRP54), wildtype (Arabidopsis thaliana, UniProt P37107 76-564)
T1 sequence (looked up): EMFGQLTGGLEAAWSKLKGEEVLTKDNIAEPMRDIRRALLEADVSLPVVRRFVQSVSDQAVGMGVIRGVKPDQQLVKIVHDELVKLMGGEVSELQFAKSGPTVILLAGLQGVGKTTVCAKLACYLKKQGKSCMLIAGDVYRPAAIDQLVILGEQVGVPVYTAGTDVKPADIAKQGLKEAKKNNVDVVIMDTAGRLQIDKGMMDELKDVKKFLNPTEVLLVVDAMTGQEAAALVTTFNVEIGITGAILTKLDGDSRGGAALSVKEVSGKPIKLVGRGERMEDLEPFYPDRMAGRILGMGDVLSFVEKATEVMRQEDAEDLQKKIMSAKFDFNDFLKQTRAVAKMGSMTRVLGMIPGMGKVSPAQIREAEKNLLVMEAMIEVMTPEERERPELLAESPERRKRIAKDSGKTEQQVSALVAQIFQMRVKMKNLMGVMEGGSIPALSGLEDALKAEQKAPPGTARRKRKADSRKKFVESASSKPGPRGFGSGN

B1: cpFtsY (chloroplast SRP receptor), wildtype (natural protein, UniProt O80842 41-366, looked up)
chain: CSAGPSGFFTRLGRLIKEKAKSDVEKVFSGFSKTRENLAVIDELLLFWNLAETDRVLDELEEALLVSDFGPKITVRIVERLREDIMSGKLKSGSEIKDALKESVLEMLAKKNSKTELQLGFRKPAVIMIVGVNGGGKTTSLGKLAHRLKNEGTKVLMAAGDTFRAAASDQLEIWAERTGCEIVVAEGDKAKAATVLSKAVKRGKEEGYDVVLCDTSGRLHTNYSLMEELIACKKAVGKIVSGAPNEILLVLDGNTGLNMLPQAREFNEVVGITGLILTKLDGSARGGCVVSVVEELGIPVKFIGVGEAVEDLQPFDPEAFVNAIFS
B2: cpFtsY(A169L) (natural protein)
chain: B1 chain with A167L
modifications: GTP/GMPPNP-Mg2+ state. Paper numbering + 38 = precursor (motif D163-x-F165-R166-A167-A168-A169), anchored on the named residues
B3: cpFtsY(A169W) (natural protein)
chain: B1 chain with A167W
modifications: GTP/GMPPNP-Mg2+ state. Paper numbering + 38 = precursor
B4: cpSRP54(A143L) (natural protein)
chain: MFGQLTGGLEAAWSKLKGEEVLTKDNIAEPMRDIRRALLEADVSLPVVRRFVQSVSDQAVGMGVIRGVKPDQQLVKIVHDELVKLMGGEVSELQFAKSGPTVILLAGLQGVGKTTVCAKLACYLKKQGKSCMLIAGDVYRPALIDQLVILGEQVGVPVYTAGTDVKPADIAKQGLKEAKKNNVDVVIMDTAGRLQIDKGMMDELKDVKKFLNPTEVLLVVDAMTGQEAAALVTTFNVEIGITGAILTKLDGDSRGGAALSVKEVSGKPIKLVGRGERMEDLEPFYPDRMAGRILGMGDVLSFVEKATEVMRQEDAEDLQKKIMSAKFDFNDFLKQTRAVAKMGSMTRVLGMIPGMGKVSPAQIREAEKNLLVMEAMIEVMTPEERERPELLAESPERRKRIAKDSGKTEQQVSALVAQIFQMRVKMKNLMGVMEGGSIPALSGLEDALKAEQKAPPGTARRKRKADSRKKFVESASSKPGPRGFGSGN
modifications: GTP/GMPPNP-Mg2+ state. Paper numbering + 76 = precursor (Met77 = 1, taken as the NdeI start)
B5: cpSRP54(A143W) (natural protein)
chain: B4 chain with L143W
modifications: GTP/GMPPNP-Mg2+ state. Paper numbering + 76 = precursor

Tests used:
[1] = molecular target: T1, cpSRP54 (chloroplast SRP54), wildtype; test: cell-based or functional assay
[2] = molecular target: T1, cpSRP54 (chloroplast SRP54), wildtype; test: GTPase inhibition assay
[3] = molecular target: T1, cpSRP54 (chloroplast SRP54), wildtype; test: GTPase inhibition assay; remark: listed apart in the source
[4] = molecular target: B1; test: cell-based or functional assay
[5] = molecular target: B1; test: GTPase inhibition assay
[6] = molecular target: B1; test: GTPase inhibition assay; remark: listed apart in the source

| kcat/Km of the reciprocally stimulated GTPase reaction [1] [M⁻¹ s⁻¹] | Ki [2] [µM] | Ki [3] [µM] | kcat/Km of the reciprocally stimulated GTPase reaction [4] [M⁻¹ s⁻¹] | Ki [5] [µM] | Ki [6] [µM] | Binder |
| --- | --- | --- | --- | --- | --- | --- |
| 300000 |  |  |  |  |  | B1 |
| 517 | > 40 |  |  |  |  | B2 |
| 467 | > 40 | > 50 |  |  |  | B3 |
|  |  |  | 200 | > 40 |  | B4 |
|  |  |  | 617 | > 40 | > 50 | B5 |
